T1: Myc-Smo (6Myc-tagged Smoothened) (Drosophila, UniProt P91682 32-1036)
T1 sequence (looked up): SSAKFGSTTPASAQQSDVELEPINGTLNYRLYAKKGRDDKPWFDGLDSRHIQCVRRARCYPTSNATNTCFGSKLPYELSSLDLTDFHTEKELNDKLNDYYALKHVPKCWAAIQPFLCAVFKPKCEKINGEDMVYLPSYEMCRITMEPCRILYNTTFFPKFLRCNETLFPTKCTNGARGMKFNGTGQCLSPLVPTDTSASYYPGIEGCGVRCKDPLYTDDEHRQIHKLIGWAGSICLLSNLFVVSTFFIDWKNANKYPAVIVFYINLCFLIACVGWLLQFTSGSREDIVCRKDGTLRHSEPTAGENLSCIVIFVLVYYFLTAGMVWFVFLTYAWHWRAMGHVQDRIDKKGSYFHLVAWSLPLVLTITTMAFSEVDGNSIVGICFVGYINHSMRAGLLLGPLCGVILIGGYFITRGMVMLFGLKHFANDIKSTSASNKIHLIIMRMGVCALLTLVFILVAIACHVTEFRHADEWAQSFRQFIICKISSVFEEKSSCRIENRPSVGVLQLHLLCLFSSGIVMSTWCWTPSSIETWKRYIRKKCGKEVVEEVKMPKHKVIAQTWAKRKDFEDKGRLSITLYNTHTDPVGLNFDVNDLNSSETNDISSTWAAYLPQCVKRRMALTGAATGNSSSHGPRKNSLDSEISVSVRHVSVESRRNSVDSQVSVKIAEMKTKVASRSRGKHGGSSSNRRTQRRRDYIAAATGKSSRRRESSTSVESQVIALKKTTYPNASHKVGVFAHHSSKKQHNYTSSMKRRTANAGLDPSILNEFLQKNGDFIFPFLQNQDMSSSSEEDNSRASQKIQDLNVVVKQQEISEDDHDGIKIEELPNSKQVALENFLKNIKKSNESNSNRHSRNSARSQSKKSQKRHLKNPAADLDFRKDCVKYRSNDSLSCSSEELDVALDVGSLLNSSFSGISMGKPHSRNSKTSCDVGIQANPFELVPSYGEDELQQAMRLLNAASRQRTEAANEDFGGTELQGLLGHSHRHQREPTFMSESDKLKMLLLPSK

B1: Krz^Leu-Flag (pAWF-Krz^Leu; Leu440-Ile441-Leu443 to Ala) (natural protein, Drosophila, UniProt Q9V393 1-470, looked up)
chain: MNGGGGGSGGANVSNGSSTNVTAAGSTGGGSAGDETGGDASSRRQATRVFKKSSSNGKITVYLGKRDFVDHVTHVDPIDGVVFIDPEYVKDRKVFGQVLAAFRYGREDLDVLGLTFRKDLYLAHEQIYPPMQLDRPMTRLQERLIKKLGPNAHPFYFEVPPYCPASVSLQPAPGDVGKSCGVDYELKAFVGENVEDKPHKRNSVRLTIRKVMYAPSKVGEQPSIEVSKEFMMKPNKIHLEATLDKELYHHGEKISVNVHVANNSNRTVKKIKVCVRQFADICLFSTAQYKSVVAEIESEDGCQVAPGFTLSKVFELCPLLANNKDKWGLALDGQLKHEDTNLASSTLITNPAQRESLGIMVHYKVKVKLLISSPLLNGDLVAELPFTLMHPKPEEEEHPLLGERSPRASLAGGGLPLVSMSDGETESATGGQDVPTTTNAAQADDDEAQDDDIIFEDFARLRLKGAETEA
B2: Krz^V94D-Flag (pAWF-Krz^V94D) (natural protein, Drosophila, UniProt Q9V393 1-470, looked up)
chain: MNGGGGGSGGANVSNGSSTNVTAAGSTGGGSAGDETGGDASSRRQATRVFKKSSSNGKITVYLGKRDFVDHVTHVDPIDGVVFIDPEYVKDRKDFGQVLAAFRYGREDLDVLGLTFRKDLYLAHEQIYPPMQLDRPMTRLQERLIKKLGPNAHPFYFEVPPYCPASVSLQPAPGDVGKSCGVDYELKAFVGENVEDKPHKRNSVRLTIRKVMYAPSKVGEQPSIEVSKEFMMKPNKIHLEATLDKELYHHGEKISVNVHVANNSNRTVKKIKVCVRQFADICLFSTAQYKSVVAEIESEDGCQVAPGFTLSKVFELCPLLANNKDKWGLALDGQLKHEDTNLASSTLITNPAQRESLGIMVHYKVKVKLLISSPLLNGDLVAELPFTLMHPKPEEEEHPLLGERSPRASLAGGGLPLVSMSDGETESATGGQDVPTTTNLIQLDDDEAQDDDIIFEDFARLRLKGAETEA

Target: T1, Myc-Smo (6Myc-tagged Smoothened)
Test: co-IP; lysates of stable Myc-Smo S2 cells transiently transfected with pAWF-krz constructs, grown in Hh conditioned medium for 18-24 hrs; immunoprecipitated with anti-Myc agarose at 4°C for 4-16 h with 1 mg/ml BSA (IP buffer: 40 mM Tris-HCl, 200 mM NaCl, 1% Chapso, 0,5% NP40); blotted with anti-Krz serum and anti-Myc
Details: partners not purified

| Binder | fold of co-immunoprecipitate over wild type Krz |
| --- | --- |
| B1 | 4 times over wild type Krz |
| B2 | 3 times over wild type Krz |
